Values quoted from earlier work in paper PMC6615252, “The binding affinity of PTPN13’s tandem PDZ2/3 domain is allosterically modulated” (BMC Molecular and Cell Biology, 2019).

Tested on: PDZ4 domain of PTPN13
Details: ref [39]; cited from earlier work
From the text: This might also explain as to why the observed in vitro affinities of PTPN13 for APC and PRK2 are low in comparison to known examples for PDZ-ligand interactions.

B1: PARG1: RhoGAP protein PARG1 (protein, UniProt Q52LW3 1-1261, looked up)
Rho GTPase-activating protein …: MIAHKQKKTKKKRAWASGQLSTDITTSEMGLKSLSSNSIFDPDYIKELVNDIRKFSHMLLYLKEAIFSDCFKEVIHIRLEELLRVLKSIMNKHQNLNSVDLQNAAEMLTAKVKAVNFTEVNEENKNDLFQEVFSSIETLAFTFGNILTNFLMGDVGNDSLLRLPVSRETKSFENVSVESVDSSSEKGNFSPLELDNVLLKNTDSIELALSYAKTWSKYTKNIVSWVEKKLNLELESTRNMVKLAEATRTNIGIQEFMPLQSLFTNALLNDIESSHLLQQTIAALQANKFVQPLLGRKNEMEKQRKEIKELWKQEQNKMLEAENALKKAKLLCMQRQDEYEKAKSSMFRAEEEHLSSSGGLAKNLNKQLEKKRRLEEEALQKVEEANELYKVCVTNVEERRNDLENTKREILAQLRTLVFQCDLTLKAVTVNLFHMQHLQAASLADSLQSLCDSAKLYDPGQEYSEFVKATNSTEEEKVDGNVNKHLNSSQPSGFGPANSLEDVVRLPDSSNKIEEDRCSNSADITGPSFIRSWTFGMFSDSESTGGSSESRSLDSESISPGDFHRKLPRTPSSGTMSSADDLDEREPPSPSETGPNSLGTFKKTLMSKAALTHKFRKLRSPTKCRDCEGIVVFQGVECEECLLVCHRKCLENLVIICGHQKLPGKIHLFGAEFTQVAKKEPDGIPFILKICASEIENRALCLQGIYRVCGNKIKTEKLCQALENGMHLVDISEFSSHDICDVLKLYLRQLPEPFILFRLYKEFIDLAKEIQHVNEEQETKKNSLEDKKWPNMCIEINRILLKSKDLLRQLPASNFNSLHFLIVHLKRVVDHAEENKMNSKNLGVIFGPSLIRPRPTTAPITISSLAEYSNQARLVEFLITYSQKIFDGSLQPQDVMCSIGVVDQGCFPKPLLSPEERDIERSMKSLFFSSKEDIHTSESESKIFERATSFEESERKQNALGKCDACLSDKAQLLLDQEAESASQKIEDGKTPKPLSLKSDRSTNNVERHTPRTKIRPVSLPVDRLLLASPPNERNGRNMGNVNLDKFCKNPAFEGVNRKDAATTVCSKFNGFDQQTLQKIQDKQYEQNSLTAKTTMIMPSALQEKGVTTSLQISGDHSINATQPSKPYAEPVRSVREASERRSSDSYPLAPVRAPRTLQPQHWTTFYKPHAPIISIRGNEEKPASPSAAVPPGTDHDPHGLVVKSMPDPDKASACPGQATGQPKEDSEELGLPDVNPMCQRPRLKRMQQFEDLEGEIPQFV
In the case of B1, the “binding to PDZ4 domain” value is given as “binds”.
